# Substitutions are numbered along the chain they refer to. Names may count otherwise.
# T1: human beta-Klotho (KLB) (human, UniProt Q86Z14 53-997)
# T1 construct: Bought protein; also called human KLB; β-Klotho
# T1 sequence (looked up): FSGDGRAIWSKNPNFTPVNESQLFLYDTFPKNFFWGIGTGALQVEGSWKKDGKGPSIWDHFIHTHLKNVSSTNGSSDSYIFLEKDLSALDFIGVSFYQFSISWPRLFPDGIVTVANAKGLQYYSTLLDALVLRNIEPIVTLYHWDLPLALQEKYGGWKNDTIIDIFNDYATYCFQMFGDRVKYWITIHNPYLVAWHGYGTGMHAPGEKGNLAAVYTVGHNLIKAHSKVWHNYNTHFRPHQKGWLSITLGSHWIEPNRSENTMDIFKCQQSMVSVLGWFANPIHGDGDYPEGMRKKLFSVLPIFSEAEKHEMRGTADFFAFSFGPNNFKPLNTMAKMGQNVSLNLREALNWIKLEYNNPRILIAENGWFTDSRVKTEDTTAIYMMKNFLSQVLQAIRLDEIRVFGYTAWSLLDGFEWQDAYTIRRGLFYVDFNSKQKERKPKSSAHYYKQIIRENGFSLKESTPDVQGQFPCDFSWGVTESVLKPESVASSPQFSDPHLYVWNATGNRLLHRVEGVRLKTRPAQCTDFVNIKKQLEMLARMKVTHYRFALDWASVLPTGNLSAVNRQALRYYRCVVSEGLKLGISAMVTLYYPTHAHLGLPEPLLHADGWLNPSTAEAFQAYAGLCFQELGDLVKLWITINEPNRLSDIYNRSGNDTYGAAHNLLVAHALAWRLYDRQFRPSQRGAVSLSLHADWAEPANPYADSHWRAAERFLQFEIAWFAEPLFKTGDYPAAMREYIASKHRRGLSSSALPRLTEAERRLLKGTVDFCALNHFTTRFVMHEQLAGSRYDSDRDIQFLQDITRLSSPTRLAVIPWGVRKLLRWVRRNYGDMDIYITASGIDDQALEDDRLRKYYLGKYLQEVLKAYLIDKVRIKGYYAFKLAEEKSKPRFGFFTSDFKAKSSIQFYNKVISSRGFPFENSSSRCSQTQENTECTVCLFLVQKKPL
# B1: 16H7 light chain variant V32Y (antibody, IgG4, V domains shown)
# VH: not shown
# VL: SYVLTQPPSVSVAPGQTARITCGGNNIGSESYHWYQQKPGQAPVLVVYDDSDRPSGIPERFSGSNSGNTATLTISRVEAGDEADYYCQVWDGNSDHVVFGGGTKLTVLG
# notes: IgG4 backbone
# B2: 16H7 light chain variant V32F (antibody, IgG4, V domains shown)
# VH: not shown
# VL: B1 VL with Y32F
# notes: IgG4 backbone
# B3: 16H7 light chain variant V98P (antibody, IgG4, V domains shown)
# VH: not shown
# VL: B1 VL with Y32V, V98P
# notes: IgG4 backbone
# B4: 16H7 light chain variant V32Q (antibody, IgG4, V domains shown)
# VH: not shown
# VL: B1 VL with Y32Q
# notes: IgG4 backbone
# B5: 16H7 light chain variant V32S (antibody, IgG4, V domains shown)
# VH: not shown
# VL: B1 VL with Y32S
# notes: IgG4 backbone
# B6: 16H7 light chain variant V97M (antibody, IgG4, V domains shown)
# VH: not shown
# VL: B1 VL with Y32V, V97M
# notes: IgG4 backbone
# B7: 16H7 light chain variant V98R (antibody, IgG4, V domains shown)
# VH: not shown
# VL: B1 VL with Y32V, V98R
# notes: IgG4 backbone
# B8: 16H7 light chain variant V32W (antibody, IgG4, V domains shown)
# VH: not shown
# VL: B1 VL with Y32W
# notes: IgG4 backbone
# B9: 16H7 light chain variant V32A (antibody, IgG4, V domains shown)
# VH: not shown
# VL: B1 VL with Y32A
# notes: IgG4 backbone
# B10: 16H7 light chain variant V98C (antibody, IgG4, V domains shown)
# VH: not shown
# VL: B1 VL with Y32V, V98C
# notes: IgG4 backbone
# B11: 16H7 light chain variant V97C (antibody, IgG4, V domains shown)
# VH: not shown
# VL: B1 VL with Y32V, V97C
# notes: IgG4 backbone
# B12: 16H7 light chain variant V32H (antibody, IgG4, V domains shown)
# VH: not shown
# VL: B1 VL with Y32H
# notes: IgG4 backbone
# B13: 16H7 light chain variant V97I (antibody, IgG4, V domains shown)
# VH: not shown
# VL: B1 VL with Y32V, V97I
# notes: IgG4 backbone
# B14: 16H7 light chain variant V32K (antibody, IgG4, V domains shown)
# VH: not shown
# VL: B1 VL with Y32K
# notes: IgG4 backbone
# B15: 16H7 light chain variant V97T (antibody, IgG4, V domains shown)
# VH: not shown
# VL: B1 VL with Y32V, V97T
# notes: IgG4 backbone
# B16: 16H7 light chain variant V32T (antibody, IgG4, V domains shown)
# VH: not shown
# VL: B1 VL with Y32T
# notes: IgG4 backbone
# B17: 16H7 light chain variant V32L (antibody, IgG4, V domains shown)
# VH: not shown
# VL: B1 VL with Y32L
# notes: IgG4 backbone
# B18: 16H7 light chain variant V32G (antibody, IgG4, V domains shown)
# VH: not shown
# VL: B1 VL with Y32G
# notes: IgG4 backbone
# B19: 16H7 light chain variant V97F (antibody, IgG4, V domains shown)
# VH: not shown
# VL: B1 VL with Y32V, V97F
# notes: IgG4 backbone
# B20: 16H7 light chain variant S94Y (antibody, IgG4, V domains shown)
# VH: not shown
# VL: B1 VL with Y32V, S94Y
# notes: IgG4 backbone
# B21: 16H7 light chain variant S94W (antibody, IgG4, V domains shown)
# VH: not shown
# VL: B1 VL with Y32V, S94W
# notes: IgG4 backbone
# B22: 16H7 light chain variant V98Q (antibody, IgG4, V domains shown)
# VH: not shown
# VL: B1 VL with Y32V, V98Q
# notes: IgG4 backbone
# B23: 16H7 light chain variant V98M (antibody, IgG4, V domains shown)
# VH: not shown
# VL: B1 VL with Y32V, V98M
# notes: IgG4 backbone
# B24: 16H7 light chain variant V32N (antibody, IgG4, V domains shown)
# VH: not shown
# VL: B1 VL with Y32N
# notes: IgG4 backbone
# B25: 16H7 light chain variant V32I (antibody, IgG4, V domains shown)
# VH: not shown
# VL: B1 VL with Y32I
# notes: IgG4 backbone
# B26: 16H7 light chain variant V32D (antibody, IgG4, V domains shown)
# VH: not shown
# VL: B1 VL with Y32D
# notes: IgG4 backbone
# B27: 16H7 light chain variant V98F (antibody, IgG4, V domains shown)
# VH: not shown
# VL: B1 VL with Y32V, V98F
# notes: IgG4 backbone
# B28: 16H7 light chain variant V98S (antibody, IgG4, V domains shown)
# VH: not shown
# VL: B1 VL with Y32V, V98S
# notes: IgG4 backbone
# B29: 16H7 light chain variant V98I (antibody, IgG4, V domains shown)
# VH: not shown
# VL: B1 VL with Y32V, V98I
# notes: IgG4 backbone
# B30: 16H7 light chain variant V98N (antibody, IgG4, V domains shown)
# VH: not shown
# VL: B1 VL with Y32V, V98N
# notes: IgG4 backbone
# B31: 16H7 light chain variant V32C (antibody, IgG4, V domains shown)
# VH: not shown
# VL: B1 VL with Y32C
# notes: IgG4 backbone
# B32: 16H7 light chain variant V32M (antibody, IgG4, V domains shown)
# VH: not shown
# VL: B1 VL with Y32M
# notes: IgG4 backbone
# B33: 16H7 light chain variant V97L (antibody, IgG4, V domains shown)
# VH: not shown
# VL: B1 VL with Y32V, V97L
# notes: IgG4 backbone
# B34: 16H7 light chain variant V97N (antibody, IgG4, V domains shown)
# VH: not shown
# VL: B1 VL with Y32V, V97N
# notes: IgG4 backbone
# B35: 16H7 variant with light chain substitution D95S (antibody, human IgG4 S228P, lambda, V domains shown)
# VH: not shown
# VL: B1 VL with Y32V, D95S
# Biological target: cell surface receptor composed of FGFR1c and co-receptor beta-Klotho (KLB) (human, UniProt P11362 22-822; Q86Z14 1-1044)
# Sequence (P11362 22-822, chain 1 of 2): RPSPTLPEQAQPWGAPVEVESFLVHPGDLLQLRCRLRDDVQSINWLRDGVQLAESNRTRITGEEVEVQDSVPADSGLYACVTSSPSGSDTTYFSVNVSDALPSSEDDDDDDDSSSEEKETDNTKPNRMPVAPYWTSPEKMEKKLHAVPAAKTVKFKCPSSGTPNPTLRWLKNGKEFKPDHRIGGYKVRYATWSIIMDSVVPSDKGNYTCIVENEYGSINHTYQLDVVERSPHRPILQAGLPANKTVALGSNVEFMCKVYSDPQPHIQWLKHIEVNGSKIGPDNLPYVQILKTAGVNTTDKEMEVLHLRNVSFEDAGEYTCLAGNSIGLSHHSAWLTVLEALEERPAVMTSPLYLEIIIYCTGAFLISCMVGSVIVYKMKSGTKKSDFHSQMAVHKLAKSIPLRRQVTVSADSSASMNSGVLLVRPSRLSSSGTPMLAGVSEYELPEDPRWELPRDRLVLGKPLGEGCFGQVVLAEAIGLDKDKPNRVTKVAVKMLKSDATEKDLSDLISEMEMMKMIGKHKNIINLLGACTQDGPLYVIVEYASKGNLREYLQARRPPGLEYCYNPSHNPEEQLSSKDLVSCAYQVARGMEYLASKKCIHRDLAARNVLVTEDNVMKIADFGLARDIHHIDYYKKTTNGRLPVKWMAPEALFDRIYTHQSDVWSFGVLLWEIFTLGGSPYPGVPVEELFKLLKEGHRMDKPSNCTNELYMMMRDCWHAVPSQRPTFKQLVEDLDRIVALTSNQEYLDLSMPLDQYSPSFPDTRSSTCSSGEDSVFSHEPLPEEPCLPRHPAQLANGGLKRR
# Sequence (Q86Z14 whole entry, chain 2 of 2): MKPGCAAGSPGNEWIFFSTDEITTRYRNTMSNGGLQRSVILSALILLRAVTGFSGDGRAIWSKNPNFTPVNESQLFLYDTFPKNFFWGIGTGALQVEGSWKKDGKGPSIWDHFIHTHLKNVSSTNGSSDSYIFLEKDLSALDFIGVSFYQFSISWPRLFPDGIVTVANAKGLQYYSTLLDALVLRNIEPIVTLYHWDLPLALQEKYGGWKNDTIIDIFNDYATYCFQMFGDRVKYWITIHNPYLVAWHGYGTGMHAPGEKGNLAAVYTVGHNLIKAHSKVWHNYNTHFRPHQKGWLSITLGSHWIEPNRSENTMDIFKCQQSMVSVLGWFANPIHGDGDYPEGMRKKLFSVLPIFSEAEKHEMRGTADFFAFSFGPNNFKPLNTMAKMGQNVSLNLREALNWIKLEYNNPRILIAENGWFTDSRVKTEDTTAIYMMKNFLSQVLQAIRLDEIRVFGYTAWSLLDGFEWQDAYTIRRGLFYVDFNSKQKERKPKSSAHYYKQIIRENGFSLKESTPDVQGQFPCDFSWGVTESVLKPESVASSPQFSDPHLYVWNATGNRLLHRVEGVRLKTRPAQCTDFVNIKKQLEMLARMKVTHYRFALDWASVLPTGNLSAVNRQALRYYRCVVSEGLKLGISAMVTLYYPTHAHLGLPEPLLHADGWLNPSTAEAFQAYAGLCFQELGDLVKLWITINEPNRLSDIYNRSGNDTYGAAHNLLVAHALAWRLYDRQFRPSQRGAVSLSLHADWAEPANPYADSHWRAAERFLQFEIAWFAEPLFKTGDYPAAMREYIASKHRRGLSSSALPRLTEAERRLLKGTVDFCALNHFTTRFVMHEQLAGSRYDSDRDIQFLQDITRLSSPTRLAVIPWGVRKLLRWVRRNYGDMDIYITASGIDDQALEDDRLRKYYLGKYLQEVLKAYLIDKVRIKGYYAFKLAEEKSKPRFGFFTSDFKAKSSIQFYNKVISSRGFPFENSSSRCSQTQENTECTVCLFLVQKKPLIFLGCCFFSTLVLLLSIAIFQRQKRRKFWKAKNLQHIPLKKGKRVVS
# Assay: cell-based or functional assay
# Throughout, for Mean E max, Luciferase reporter gene assay: reference of the scale not given here.
Binder,"Mean E max, Luciferase reporter gene assay [%]","Mean EC50, Luciferase reporter gene assay [nM]"
B1,106,0.103
B2,100,0.102
B3,89,0.131
B4,91,0.166
B5,102,0.124
B6,103,0.214
B7,99,0.099
B8,102,0.145
B9,108,0.144
B10,100,0.105
B11,104,0.19
B12,100,0.147
B13,110,0.12
B14,101,0.158
B15,99,0.142
B16,107,0.107
B17,104,0.126

Binder,"Mean E max, Luciferase reporter gene assay [%]","Mean EC50, Luciferase reporter gene assay [nM]"
B18,103,0.24
B19,45,3.02
B20,100,0.098
B21,103,0.159
B22,111,0.121
B23,108,0.114
B24,104,0.123
B25,113,0.133
B26,92,0.141
B27,102,0.161
B28,107,0.094
B29,116,0.105
B30,112,0.111
B31,99,0.108
B32,103,0.135
B33,110,0.129
B34,95,0.206

# Biological target: cell surface receptor composed of the tyrosine kinase receptor FGFR1c and co-receptor beta-Klotho (KLB) (human, UniProt P11362 22-822; Q86Z14 1-1044)
# Sequence (P11362 22-822, chain 1 of 2): as the sequence (P11362 22-822, chain 1 of 2) above
# Sequence (Q86Z14 whole entry, chain 2 of 2): as the sequence (Q86Z14 whole entry, chain 2 of 2) above
# Assay: cell-based or functional assay
row,Binder,"Mean E max, Luciferase gene reporter assay [%]"
1,B35,37

# Biological target: T1, human beta-Klotho (KLB)
# Assay: BLI off-rate screening (Octet), crude supernatant;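 note: supernatants tested at 25 µg/mL, dissociation from biosensors recorded in D-PBS with 0.1% BSA over 1800 s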
row,Binder,koff [s⁻¹]
1,B1,1.9e-05
2,B2,4.1e-05
3,B3,7.3e-05
4,B4,0.00025
5,B5,5.1e-05
6,B6,3.3e-05
7,B7,0.00011
8,B8,0.00023
9,B9,4.7e-05
10,B10,6.4e-05
11,B11,0.00023
12,B12,7.3e-05
13,B13,1.7e-05
14,B14,2.6e-05
15,B15,0.0001
16,B16,7e-05
17,B17,4.9e-05

row,Binder,koff [s⁻¹]
1,B18,6.5e-05
2,B19,2.1e-05
3,B20,6.2e-05
4,B21,4.3e-05
5,B22,3.7e-05
6,B23,7.2e-05
7,B24,4.4e-05
8,B25,2e-05
9,B26,0.00025
10,B27,1.6e-05
11,B28,3.9e-05
12,B29,3.3e-05
13,B30,2.1e-05
14,B31,5.1e-06
15,B32,9.5e-05
16,B33,5.9e-05
17,B34,0.00033

# — US20220010021A1 (Sanofi, published 2022)
